Test: soluble on expression in E. coli; label from the status in PepcDB or PDB records

Soluble on expression in E. coli, not soluble:
MGSDKIHHHHHHMIHRQTNQLNTDNLEKKQRQYKYAFNLAEIDSESFPMHIFRKYAKDVFEDHQLSLLQRGERQGEYILRQQISHYLFNSRGVTCHPNQIIVGSSTSQLLDMITNLLKKEEFIIEQPSYPPIKHTLDKKGISYIQVPVEQNGIQIDPILNTNNNILYITPSHQFPTGYVTNLKKRTQLINWSHQAKQRYIIEDDYDSEFRYFGKPIPALQSLDTKGKVIYISTFSKSLYPSCRIAYIVLPQNLMHKYNNQKYKEGNTVPVHVQHMIAQFMISGKFERHLNKMRKIYRDKLDYILKRLKPYNTQIKIEGALTGMHFTITVNNGLSMKQCLKNAKKNNLKLKPYHYENYSKVYPKFILGFGGIKKEELEDHVNALIHSLVI, MGSDKIHHHHHHMSILVPEQVREALDVHVVSFLGGRLNKHWLVDVCGHKLVLRRWAADREDAGYERDLRQAIRASGWPVARDVTALTEIAGELWSLAEFLPGEPHPEKNSAAELSLRGRLMAEFHQVTASLNPGRRKHWRLPDEILSDDHLEQVFEHCPDVRLRRLLFWHLQRGRQLAAGLPWSEQSLQLIHGDFTPWNLLYREGQLSGLLDCEMSRPEYRISEFALSWRGRYDALIHAYHAVSPLSAPEWNMLTPAWWALLLEGAYRNLVSGTEDQGWTAGMLLRRSPLMGIESCPC, MDAPRINKWLKPLSALYGVGVRLRNYLFDKNVLISNSFDIPIVCVGNITIGGTGKTPHVEYLIRLLHPRYRVAVVSRGYKRKTKGMIVATEGSTAWDIGDEPRQIKRKYPDLTVIVDADRSRAIGYLCDLAEEQRPQLIVLDDGFQHRKVKADLNIVLTDYNRILTKDYLLPAGRLREPAGSIQRADMVILTKCPDDLAPIDLRAAKRDLALYPHQKLFFSKFLYGQGLKPLFSDQSPSAEVRSALAIAGIASPKLFFREIRTRFPSGTDRIYPDHHEFTDREICLLIQDWHELHRKDANAIVVCTEKDAMRLALRQSSFPQEMQERFYYLPVEVKLMFDQEKVFVDRLLGVIQHKKLEHHHHHH, MGSDKIHHHHHHMTEITTLSQFLTTAKTQFQVYDLGRRVQHIDMLAFHQIESLSTPYPYPIQGHAQFAIVFWDASQQHFIWFLKLALDEQGLLSPAPRSQFIEMILAALGQDPTQPLSDEQQERLANNPFNFKPSQEKLAVFNALVRKQLGQRASSQYEFAVQYLSGQVAPAQWQHIGMQGIADVCARANEFDHEQQLVSSFDTAAIEVQIALCQCLEHLLISDTLADKILAKLQDAAPEHQAYFLRALASSAKHSQQAFEHLHGQASLDTNALISIAGRNWSVLKQDSSRSLYLEALALQPQAFFNQVFADIVAIPSLRNQLLGELRNPNRSVQLSQAIGGLFKAASK, MGSDKIHHHHHHMINQVYQLVAPRQFEVTYNNVDIYSDYVIVRPLYMSICAADQRYYTGSRDENVLSQKLPMSLIHEGVGEVVFDSKGVFNKGTKVVMVPNTPTEKDDVIAENYLKSSYFRSSGHDGFMQDFVLLNHDRAVPLPDDIDLSIISYTELVTVSLHAIRRFEKKSISNKNTFGIWGDGNLGYITAILLRKLYPESKIYVFGKTDYKLSHFSFVDDVFFINKIPEGLTFDHAFECVGGRGSQSAINQMIDYISPEGSIALLGVSEFPVEVNTRLVLEKGLTLIGSSRSGSKDFQDVVDLYIQYPDIVDKLALLKGQEYEIATINDLTEAFEADLSTSWGKTVLKWIM, MAHHHHHHMEPLIIDNLYKFGDEEVRLGIDEAGRGPVLGPMVYAGFYCNKEHEKLLKEMKIDDSKKISEADREMMFHKLNNSSLPFGWRIHVLMPQDISAKMLKKQKYNLNEISHDTAISIIDHVISRGCNLTEVFVDTVGKPSVYEEKLKRLFPHIKCTVKEKADSLYPVVSAASICAKVTRDFLIKKWKYEEPLVNIDKGFGSGYPGDPITKNFLKNNFDTVFGFPSIVRFSWSTADNMLETMGEQIEWYDDIENNDSKAIKRKTPFDYSKLQKPFVQRSLFYSKVGLDLVENL, MAMNVTEIVLKKPVTAHNEMLHVLELREPTYDEIEALGFPFIISGEGSIKLDSQVALKYIPLLAGIPCSSAAQMAKLDIFKTSMQILRFFTQSETGSTSGNDSTMLPGSGN, MAHHHHHHMDEKSEINYDEGADPSYSMHMSESHSAYEEVNKTSSDSEFVDDDYSKVISENNLESDNVKYNPDLYNLGKARQYLCPKVQEYGIPGQVSPYHFPYNEEDYLSNVDTEYDENGFPIRTNIDDNDNNEDNKKLWSWTNDGKLKLLCSQPIIPVSVVQGILRRDKIILIPQVEVTDVVIPKVYNQNIKHDVPTLNIEIMKSNVNIPNVKYVDKEIIIPIITGYTHKFVPKWDIHEVPRPVVKYIGEQKIVEVEVPEIKYIDKFVEREVIVDTVEKRVPKIIEVPKYVDEVKYVWKPIEKIVYVQKLIPKFDVNLECPPPLIVPYPVQRIKQISPVMVKKNNTEIPDYNYYDLNSPEGSLPIPEEYIHHYSRKQKMNKGLLSTCCDKKIVTEEEKNVQFVSVPLSNEHESVCVDEEIKKNINMSQENINTQLNNNMDNFIYDSDIKKNKDKMNSSINGKQQLYINS, VTMKEASAREIDEVVITGTGAQKKLTVTGAITNVDVDVLKANPSGSMANALAGNVPGILAMQTSGKPGSVSEFWIRGISTFGASNSALVLVDGFERSLDEINVEDVESFSVLKDASATAIYGSKGANGVVLITTKHGKAGK, MQTKEKLASLSYLAVKSLLYELNLTPKPGLVDCHNNGAHNDMDFYTFLDSILSLSPFFKKYIEVGWLYHNESPQYLFNQLRKLGIEAEAAMFSATERVNTHKGINFSFALLLGATGSYLAKHIELIQEKRRFMPQDSLTICHLAGEMSMHLIQNDLSHVETKRNLTYGEKLFLQYGLKGLRGEASQGYPSLTQKALPFFRNELLKKQDIQISQLKLLLYLMTFIEDSNIIHRGGIKSWKKVQQEAQTLLEKDLPPYQLKEQLNSYNQILTDRHLSPGGAADLLSLTLYFSFLEQLI

Soluble on expression in E. coli, soluble:
MVKTMKCKFCDKKSYIKLKSPKMYLCKEHFVEYFENKVKKSIDKYKMLSKDEKILVAVSGGKDGHAAAWVLKKLGYNIELFHINLGIEGFSEESLKAVKELAEKLEVPLHVVNLKDITGKTMEDIRGKKCSICGTTKRYLMNKFGYENGFDVIVTGHNLDDEVSFILNNLFNWNIRYLAKHEPVLPAHDKFLKKVKIFFEIEEELILKYAEAEEIPYTTVECKYAERAITLKHRAYLNELEKERPGIKYQFLSGYMKNRHLFKVEEEDFQFRECEVCGMTSAGKICSFCRVWKLYKKKKENRN, MASLLNARTAVITGGAQGLGLAIGQRFVAEGARVVLGDVNLEATEVAAKRLGGDDVALAVRCDVTQADDVDILIRTAVERFGGLDVMVNNAGITRDATMRTMTEEQFDQVIAVHLKGTWNGTRLAAAIMRERKRGAIVNMSSVSGKVGMVGQTNYSAAKAGIVGMTKAAAKELAHLGIRVNAIAPGLIRSAMTEAMPQRIWDQKLAEVPMGRAGEPSEVASVAVFLASDLSSYMTGTVLDVTGGRFI, MAHHHHHHMADDILQCVHKEFKYVLISSDINDQIKELTFSGSERKFQGVLASYFRRIIFDEKGKNELKEVIKEKLKVSKENDNGGTERAGAEQEGDQNGQKSGQPNGAELNASAITPDLINNAVESSQTYQIIPLTIPTEKTNFFAVNCYIDDIGRIKKLPYNSRASRICSTEIYGDAFLSKTYDNEDFRRCDFTISEYEQFLQNPPKAENRYPPSDTMCVSG, ALSAKLTLDKVDLKGKRVIMRVDFNVPMKNNQITNNQRIKAAIPSIKHCLDNGAKSVVLMSHLGRPDGIPMPDKYSLEPVADELKSLLNKDVIFLKDCVGPEVEQACANPDNGSIILLENLRFHVEEEGKGKDSSGKKISADPAKVEAFRASLSKLGDVYVNDAFGTAHRAHSSMVGVNLPQKASGFLMKKELDYFSKALEKPERPFLAILGGAKVKDKIQLIKNMLDKVNFMIIGGGMAYTFLKELKNMQIGASLFDEEGATIVKEIMEKAEKNGVKIVFPVDFVTGDKFDENAKVGQATIESGIPSGWMGLDCGPESIKINAQIVAQAKLIVWNGPIGVFEWDAFAKGTKALMDEVVKATSNGCVTIIGGGDTATCCAKWGTEDKVSHVSTGGGASLELLEGKILPGVEALSNM, STGSKQRSQNRSKTPKNQEALRMANVAENSSSDQRQACKKHELYVSFRDLGWQDWIIAPEGYAAYYCEGECAFPLNSYMNATNHAIVQTLVHFINPETVPKPCCAPTQLNAISVLYFDDSSNVILKKYRNMVVRACGCH, GPGSMSEHATTDLEGRYAQLATIQSEIDAAPLLSPTVEKLGDGCNLMTEFSDNPPMLVKVVSLWRNEETKYKGIRYARRDGNCFYRSVVFGMHESLLNNKERAGAHLERITDLSRQVVADYGNFAEDFCHPAVEMAKKIESGECSTVEQLYELSTNGEAEYALYFYRYAVSHHIRTHEDDFLPFVVGMGHETVSEFCSVEVDAVASEADNVQVVAFAQCFDVRVIVEYVDGREGDCTTRHTFQQKDSHDANEYTTIEVTLLYRPGHYDLLYK, EAHQIRRSGNYQPALWDSNYIQSLNTPYTEERHLDRKAELIVQVRILLKEKMEPVQQLELIHDLKYLGLSDFFQDEIKEILGVIYNEHKCFHNNEVEKMDLYFTALGFRLLRQHGFNISQDVFNCFKNEKGIDFKASLAQDTKGMLQLYEASFLLRKGEDTLELAREFATKCLQKKLDEGGNEIDENLLLWIRHSLDLPLHWRIQSVEARWFIDAYARRPDMNPLIFELAKLNFNIIQATHQQELKDLSRWWSRLCFPEKLPFVRDRLVESFFWAVGMFEPHQHGYQRKMAATIIVLATVIDDIYDVYGTLDELELFTDTFKRWDTESITRLPYYMQLCYWGVHNYISDAAYDILKEHGFFCLQYLRKSVVDLVEAYFHEAKWYHSGYTPSLDEYLNIAKISVASPAIISPTYFTFANASHDTAVIDSLYQYHDILCLAGIILRLPDDLGTSYFELARGDVPKTIQCYMKETNASEEEAVEHVKFLIREAWKDMNTAIAAGYPFPDGMVAGAANIGRVAQFIYLHGDGFGVQHSKTYEHIAGLLFEPYA, MAHHHHHHMRQTGSFQPFFLRGKVVHGKGRGGSQLGFPTANIGLDKDVMECLQPYKNLVVYGWGTVSQVPGKERESFGPYPFAASIGFNMQFDEKTLTVEPYFLHEFGWDFYGAVVKIIVLGEIRSMGSFHSLQALVDTIKSDVQFTRDMLQKPQLQEFSRHSLFESPSSTIPYFEDLPDE, MADFARSLSITTPEEMIEKAKGETAYLPCKFTLSPEDQGPLDIEWLISPADNQKVDQVIILYSGDKIYDDYYPDLKGRVHFTSNDLKSGDASINVTNLQLSDIGTYQCKVKKAPGVANKKIHLVVLVK, MSLETSTQCTSAVAHTSGRRNYNEDRICVATNIEGADLFAVFDGHNGHEAATLCRNKLKQVYGSCHGNINDTFQSLNDIVSKETTAGCTATIVAVKQNSIEVGNCGDSPAYVIRKDKSIEKITYDHKATDPKEEEMIVKNGGVVMNLFGTKRVNGQIMVTRSIGDRSLHPPMTSIPTTKIISKEDIISICVMSDGVTDALTDLEIHDIMTNGQPIEIRAQTIRNQAYKEGSKDNICVVVVDLEGHHHHHH, MSIESLNAFSMDFFSLKGKTAIVTGGNSGLGQAFAMALAKAGANIFIPSFVKDNGETKEMIEKQGVEVDFMQVGITAEGAPQKIIAACERFGTVDILVNNAGICKLNKVLDFGRADWDPMIDVNLTAAFELSYEAAKIMIPQKSGKIINICSLFSYLGGQWSPAYSATKHALAGFTKAYCDELGQYNIQVNGIAPGYYATDITLATRSNPETNQRVLDHIPANRWGDTQDLMGAAVFLASPASNYVNGHLLVVDGGYLVR, GMTTENTTALLLIDFQNDYFSTYNGAKNPLVGTEAAAEQGAKLLAKFRQQGLPVVHVRHEFPTDEAPFFLPGSDGAKIHPSVAAQEGEAVVLKHQINSFRDTDLKKVLDDAGIKKLVIVGAMTHMCIDAVTRAAEDLGYECAVAHDACATLDLEFNGITVPAAQVHAAFMSALSFAYANVASADELIAGL

— the DeepSol protein solubility set
